Experimental data published in patent publication US20220088131A1, “COMPOSITIONS AND METHODS RELATING TO C5L2” (King's College London, priority 2013, published 2022).

Legend:
[1] = system: natural regulatory T cells (nTregs); assay: nTreg suppression assay (CFSE dilution); assay type: cell-based, human; conditions: nTregs pre-incubated with 7 μM dRA for 8 hr; 1:1 co-culture; FIG. 14
Method: FIG. 14. C5L2 blockage decreases suppressive activity of natural regulatory T cells (nTregs). nTregs and effector T cells from a freshly drawn human blood sample were separated by cell sorting (CD4^+CD25^hiCD127^lo Treg cells; CD4^+CD25^loCD127^hi effector T cells). nTreg cells were incubated in media containing 7 μM of the C5ar/C5L2 double antagonist (dRA) for 8 hr. Cells were then washed twice to remove the dRA and used for a suppression assay via CSFE dilution measurement in 1:1 co-culture and percentage of suppression calculated. Shown are the mean values of two separately performed experiments.
nTregs were isolated essentially as described in Yates, J., et al., Int Immunol. (2007) 19(6):785-99. […]
Principle • Label target cells (T effectors (Teff) usually) with 1 μM CFSE as described • Activate cells with and without Tregs in serial dilution (constant Teff numbers) • CFSE will be evenly split among daughter cells, so peaks on flow will correspond to each round of division (halving of CFSE) • The percentage of dividing precursors can be calculated this way. • In the presence of Tregs, the suppression of division can be estimated. […]
• 1. […] Acquire FL1 fluorescence of each well on day 4 and calculate suppression of CFSE dilution by Tregs (different methods exist for this) * If there is inadequate CFSE labelling, pulse with ^3H-Thymidine on day 5 instead, as a readout for suppression. […]

CD4+ T cells = assay: TGF-β receptor chain expression in CD4+ T cells; assay type: cell-based, human; conditions: FIG. 16
Method: FIG. 16. C5L2 regulates TGF-β receptor chain expression in CD4+ T cells.
Results described above indicate that C5L2-mediated signals actively contribute to the negative regulation of human Th1 and Th17 responses. To further define C5L2-activated signaling events in CD4+ T cells, gene, miRNA and methylation arrays were performed using T cells from the C5-deficient patient and T cells activated in the presence of the dRA. […] It is believed that TGF-β is important for IL-17 production but also IFN-γ suppression. TGF-β receptor signaling via autocrine TGF-β production has been implicated as required for control of Th1 responses and prevention of autoimmunity in certain experimental models (Ishigame, et al., Proc Natl Acad Sci USA. (2013) 110(17):6961-6). It was of interest to examine whether C5L2-mediated signals regulate autocrine TGF-β production, TGF-β receptor signaling, or both.

B1: A8delta71-73: Dual C5aR/C5L2 receptor antagonist; C5a variant A8 (C27A, H67F, D69R, M70S, Q71L, G73R, Arg74 deleted) lacking amino acids 71-73 (protein)
chain: TLQKKIEEIAAKYKHSVVKKCCYDGAAVNNDETCEQRAARISLGPRCIKAFTECCVVASQLRANISFKRS
[1]
  suppressor function of nTregs: markedly reduced
CD4+ T cells
  expression of TGF-β receptor chains: increased expression
